The subject of one series is SBS 30888 ZFN. Put plainly: cell_activity. As to conditions: paired with 30886 in G2019S heterozygous patient iPSC; pair more specific for G2019S mutant; value is % clones with monoallelic NHEJ (17% biallelic NHEJ).
The test system of another series is SBS 30886 ZFN. Put plainly: cell_activity. As to conditions: paired with 30888 in G2019S heterozygous patient iPSC; value is % clones with monoallelic NHEJ (17% biallelic NHEJ).

In turn, “GCAAAGATTGCTGACTACAGCATTGCTC (double strand) [LRRK2 6055G>A (G2019S) target of 30888]” displayed an activity in the series with SBS 30888 ZFN of 46%. With “TGATGGCAGCATTGGGATACAGTGTGAA (double strand) [LRRK2 target of 27865/27866/27867/27868/30886]”, in the series with SBS 30886 ZFN, the activity was 46%.

The values are drawn from US20120214241.
